The data set is described as follows: self-splicing fitness, log relative to wild type (ln ratio); higher = more splicing; Tetrahymena group I intron in knt gene, E. coli kanamycin selection, DiMSum; sequences stand for … in CUCUCU…GGAGGGAAAAGUUAUCAGGCAUGCACCUGGUAGCUAGUCUUUAAACCAAUAGAUUGCAUCGGUUUAAAAGGCAAGACCGUCAAAUUGCGGGAAAGGGGUCAACAGCCGUUCAGUACCAAGUCUCAGGGGAAACUUUGAGAUGGCCUUGCAAAGGGUAUGGUAAUAAGCUGACGGACAUGGUCCUAACCACGCAGCCAAGUCCUAAGUCAACAGAUCUUCUGUUGAUAUGGAUGCAGUUCACAGACUAAAUGUCGGUCGGGGAAGAUGUAUUCUUCUCAUAAGAUAUAGUCGGACCUCUCCUUAAUGGGAGCUAGCGGAUGAAGUGAUGCAACACUGGAGCCGCUGGGAACUAAUUUGUAUGCGAAAGUAUAUUGAUUAGUUUUGGAGUACUCGUGGUCG
The method, boiled down:
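The eight P1ex-region nucleotides of an intron in the knt kanamycin-resistance gene on pET-22b(+) were all randomised and the library put into E. coli BL21(DE3). Six replicate transformations were grown overnight at 37°C or 30°C on LB agar with or without 25 μg/mL kanamycin, together with 100 μg/mL carbenicillin, 50 μM IPTG and 0.2% rhamnose. Colonies were pooled and amplicon-sequenced on an Illumina HiSeq 2500. Fitness from DiMSum is the error-weighted combination of wild-type-normalised replicate fold changes, kanamycin over none.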

± gives the uncertainty stated by the source.

As to UUUUAGCAAUAUUACGAAAA, the “self-splicing fitness (ln)” value (30 °C) was -1.13 ± 0.17 and the “self-splicing fitness (ln)” value (37 °C) was -0.0479 ± 0.18.

With UUUUAGCAAUAUUACGACAA, the “self-splicing fitness (ln)” value is, setting by setting: (30 °C) -0.409 ± 0.15; (37 °C) -0.125 ± 0.17.

Turning to UUUUAGCAAUAUUACGAUUA, the “self-splicing fitness (ln)” value was -0.349 ± 0.16 (30 °C) and 0.0391 ± 0.13 (37 °C).

UUUUAGCAAUAUUACGCACA: the “self-splicing fitness (ln)” value was -0.201 ± 0.21 (30 °C) and -0.107 ± 0.19 (37 °C).

UUUUAGCAAUAUUACGCAUA: the “self-splicing fitness (ln)” value reads like this: (30 °C) -1.52 ± 0.27; (37 °C) -0.671 ± 0.21.

For the sequence UUUUAGCAAUAUUACGCCGA, the “self-splicing fitness (ln)” value runs as follows: (30 °C) -1.15 ± 0.29; (37 °C) -0.282 ± 0.32.

In the case of UUUUAGCAAUAUUACGCGGG, the “self-splicing fitness (ln)” value (30 °C) was -0.691 ± 0.17 and the “self-splicing fitness (ln)” value (37 °C) is -0.801 ± 0.17.

With UUUUAGCAAUAUUACGCUAC, where the note is “37 °C”, the “self-splicing fitness (ln)” value was -2.79 ± 0.31.

Consider UUUUAGCAAUAUUACGCUGG, for which the “self-splicing fitness (ln)” value is, setting by setting: (30 °C) -3.74 ± 0.39; (37 °C) -2.88 ± 0.44.

Take UUUUAGCAAUAUUACGGAAU: the “self-splicing fitness (ln)” value (37 °C) was -2.48 ± 0.4.

For UUUUAGCAAUAUUACGGACC, the “self-splicing fitness (ln)” value was -2.44 ± 0.4 (30 °C) and -0.175 ± 0.33 (37 °C).

For the sequence UUUUAGCAAUAUUACGGAUA, the “self-splicing fitness (ln)” value (30 °C) is -1.07 ± 0.33 and the “self-splicing fitness (ln)” value (37 °C) was -1.21 ± 0.4.

With UUUUAGCAAUAUUACGGCUU, the “self-splicing fitness (ln)” value runs as follows: (30 °C) -1.98 ± 0.17; (37 °C) -0.826 ± 0.2.

Regarding UUUUAGCAAUAUUACGGGAA, the “self-splicing fitness (ln)” value was -1.16 ± 0.16 (30 °C) and -1.19 ± 0.13 (37 °C).

Turning to UUUUAGCAAUAUUACGGGGG, the “self-splicing fitness (ln)” value was -3.07 ± 0.41 (30 °C) and -2.25 ± 0.31 (37 °C).

On to UUUUAGCAAUAUUACGGUAA, for which the “self-splicing fitness (ln)” value (30 °C) was -1.94 ± 0.2 and the “self-splicing fitness (ln)” value (37 °C) is -0.884 ± 0.14.

With UUUUAGCAAUAUUACGUCCA, the “self-splicing fitness (ln)” value was -1.59 ± 0.22 (30 °C) and -0.545 ± 0.19 (37 °C).

In the case of UUUUAGCAAUAUUACGUUUG, the “self-splicing fitness (ln)” value reads like this: (30 °C) -1.6 ± 0.082; (37 °C) -0.497 ± 0.12.

As for UUUUAGCAAUAUUACGUUUU, the “self-splicing fitness (ln)” value is -3.49 ± 0.21 (30 °C) and -2.22 ± 0.27 (37 °C).
